Data as given in article PMC11849073, “Specific recognition mechanism of an antibody to sulfated tyrosine and its potential use in biological research” (The Journal of Biological Chemistry, 2025).

Assays:
[1] = target: BA8 Fab S52 A mutant (heavy chain) (rabbit); test: ITC; MicroCal PEAQ-ITC; 10 μM BA8 Fab in the cell, 100 μM CCR5 N-terminal peptide in the syringe; PBS; 25 °C (297 K in the table's footnote); one set of sites
[2] = target: BA8 Fab LC S98 A mutant (light chain) (rabbit); test: as above
BA8 Fab LC S98 A mutant (light chain) (rabbit), sequence (heavy, as listed by the source, chain 1 of 2): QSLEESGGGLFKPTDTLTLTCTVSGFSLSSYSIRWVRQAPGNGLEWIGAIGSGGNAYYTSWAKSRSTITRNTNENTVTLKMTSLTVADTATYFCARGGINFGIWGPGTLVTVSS
BA8 Fab LC S98 A mutant (light chain) (rabbit), sequence (light, as listed by the source, chain 2 of 2): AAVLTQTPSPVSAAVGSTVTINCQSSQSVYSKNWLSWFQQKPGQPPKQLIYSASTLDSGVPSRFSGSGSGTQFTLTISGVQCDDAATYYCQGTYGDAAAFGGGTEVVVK

[3] = target: BA8 Fab S32 A mutant (heavy chain) (rabbit); test: as above
BA8 Fab S32 A mutant (heavy chain) (rabbit), sequence (heavy, as listed by the source, chain 1 of 2): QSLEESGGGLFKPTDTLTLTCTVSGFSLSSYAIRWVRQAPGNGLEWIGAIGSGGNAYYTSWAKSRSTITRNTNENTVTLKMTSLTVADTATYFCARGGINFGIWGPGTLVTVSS
BA8 Fab S32 A mutant (heavy chain) (rabbit), sequence (light, as listed by the source, chain 2 of 2): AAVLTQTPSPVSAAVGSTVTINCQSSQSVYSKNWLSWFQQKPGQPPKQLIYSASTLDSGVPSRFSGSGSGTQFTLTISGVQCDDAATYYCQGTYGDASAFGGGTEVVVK

[4] = target: BA8 Fab N55 A mutant (heavy chain) (rabbit); test: as above
BA8 Fab N55 A mutant (heavy chain) (rabbit), sequence (heavy, as listed by the source, chain 1 of 2): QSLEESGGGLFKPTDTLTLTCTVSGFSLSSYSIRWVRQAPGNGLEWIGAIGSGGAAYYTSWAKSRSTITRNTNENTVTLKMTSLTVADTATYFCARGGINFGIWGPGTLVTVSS

[5] = target: BA8 Fab Y57 A mutant (heavy chain) (rabbit); test: as above
BA8 Fab Y57 A mutant (heavy chain) (rabbit), sequence (heavy, as listed by the source, chain 1 of 2): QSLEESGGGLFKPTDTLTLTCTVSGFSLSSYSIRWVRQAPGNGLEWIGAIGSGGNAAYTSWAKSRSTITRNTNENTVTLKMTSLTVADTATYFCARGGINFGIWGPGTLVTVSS

[6] = target: BA8 Fab W46 A mutant (heavy chain) (rabbit); test: as above
BA8 Fab W46 A mutant (heavy chain) (rabbit), sequence (heavy, as listed by the source, chain 1 of 2): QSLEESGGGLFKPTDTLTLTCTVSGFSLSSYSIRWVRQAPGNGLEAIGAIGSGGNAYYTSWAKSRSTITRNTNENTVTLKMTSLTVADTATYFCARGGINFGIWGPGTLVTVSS

[7] = target: BA8 Fab S30 A mutant (heavy chain) (rabbit); test: as above
BA8 Fab S30 A mutant (heavy chain) (rabbit), sequence (heavy, as listed by the source, chain 1 of 2): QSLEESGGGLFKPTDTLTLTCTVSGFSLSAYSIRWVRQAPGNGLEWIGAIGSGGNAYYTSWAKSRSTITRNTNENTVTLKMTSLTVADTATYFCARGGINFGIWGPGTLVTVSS

[8] = target: BA8 Fab Y31 A mutant (heavy chain) (rabbit); test: as above
BA8 Fab Y31 A mutant (heavy chain) (rabbit), sequence (heavy, as listed by the source, chain 1 of 2): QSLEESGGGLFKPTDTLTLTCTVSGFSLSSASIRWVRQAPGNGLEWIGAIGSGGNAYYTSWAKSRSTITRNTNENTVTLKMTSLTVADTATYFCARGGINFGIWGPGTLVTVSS

[9] = target: BA8 Fab Y57 F mutant (heavy chain) (rabbit); test: as above
BA8 Fab Y57 F mutant (heavy chain) (rabbit), sequence (heavy, as listed by the source, chain 1 of 2): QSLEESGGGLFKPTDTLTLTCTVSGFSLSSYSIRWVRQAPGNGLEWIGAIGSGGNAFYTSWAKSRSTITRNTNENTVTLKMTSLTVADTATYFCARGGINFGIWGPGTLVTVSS

[10] = target: BA8 Fab LC S98 A mutant (light chain) (rabbit); test: SPR; Biacore 8K; each Fab immobilised on a CM5 chip by amine coupling (pH 5.5, about 3000 RU); peptides as analytes, 2 to 162 nM (20 nM to 1620 nM for the R34 A, S52 A and Y57 A mutants of Fig. 3C); PBS with 0.005% Tween 20; 30 μl/min; global fitting
[11] = target: BA8 Fab S32 A mutant (heavy chain) (rabbit); test: as above
[12] = target: BA8 Fab N55 A mutant (heavy chain) (rabbit); test: as above
[13] = target: BA8 Fab Y57 A mutant (heavy chain) (rabbit); test: as above
[14] = target: BA8 Fab W46 A mutant (heavy chain) (rabbit); test: as above
[15] = target: BA8 Fab S30 A mutant (heavy chain) (rabbit); test: as above
[16] = target: BA8 Fab Y31 A mutant (heavy chain) (rabbit); test: as above
[17] = target: BA8 Fab Y57 F mutant (heavy chain) (rabbit); test: as above

BA8 Fab S52 A mutant (heavy chain) (rabbit), sequence (heavy, as listed by the source, chain 1 of 2): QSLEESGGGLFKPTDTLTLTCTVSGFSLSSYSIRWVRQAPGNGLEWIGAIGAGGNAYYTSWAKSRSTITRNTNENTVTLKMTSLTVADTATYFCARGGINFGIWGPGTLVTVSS

sulfated N-terminal peptide of CCR5 (Pro8 to Ser18 with sulfated Tyr10, Tyr14 and Tyr15)
Kd [1]: 726 nM | dH [1]: -16.6 kcal/mol | stoichiometry N [1]: 0.796 sites | dH [2]: -26.2 kcal/mol | stoichiometry N [2]: 0.924 sites | dH [3]: -26 kcal/mol | stoichiometry N [3]: 0.903 sites | dH [4]: -27.6 kcal/mol | stoichiometry N [4]: 0.844 sites | Kd [5]: 73.7 nM | dH [5]: -21.7 kcal/mol | stoichiometry N [5]: 0.854 sites | Kd [6]: 6.1 nM | dH [6]: -27.2 kcal/mol | stoichiometry N [6]: 0.824 sites | dH [7]: -25.8 kcal/mol | stoichiometry N [7]: 0.892 sites | Kd [8]: 4.41 nM | dH [8]: -22.8 kcal/mol | stoichiometry N [8]: 0.839 sites | Kd [9]: 10.5 nM | dH [9]: -25 kcal/mol | stoichiometry N [9]: 0.896 sites | Kd [10]: 2.41 nM | Kd [11]: 1.94 nM | Kd [12]: 1.8 nM | Kd [13]: 446 nM | Kd [14]: 21.8 nM | Kd [15]: 1.44 nM | Kd [16]: 18.6 nM | Kd [17]: 2.36 nM
